Test results from patent US20230406907A1.
Read-outs that look alike come from different tables or passages of the source.

Key:
[1] = target: T1, SARS-CoV-2 spike protein RBD (amino acids 319-537 of SEQ ID NO:1, i.e. SEQ ID NO:5) with a carboxy t (SARS-CoV-2), P0DTC2; settings: remark: other sources report otherwise
[2] = target: T1, SARS-CoV-2 spike protein RBD (amino …); settings: remark: other sources report otherwise; remark: listed apart in the source

B1: antibody S1D2 (fully human recombinant monoclonal IgG1, no Fc mutation) (antibody, V domains shown)
VH: EVQLVESGGGLIQPGGSLRLSCAASGFTVSSNYMSWVRQAPGKGLEWVSIIYPGGSTNYADSVKGRFTISRDNSRNTLYLQMNSLRAEDTAVYYCARELGYYGMDVWGQGTTVTVSS
VL: DIQMTQSPSSVSASVGDRVTITCRASQGISTWLVWYQQKPGKAPNLLIYGASSLQSGVPSRFSGSGSGTDFTLTISSLQPEDFATYYCQQANSFPYTFGQGTKLEIK
Kd [1]: 0.0462 µM | koff [1]: 0.027 s⁻¹ | kon [1]: 584000 M⁻¹ s⁻¹ | Kd [2]: 0.046 µM
